Laboratory results published in US9233127B2, “Compositions and methods for CXCR4 signaling and umbilical cord blood stem cell engraftment” (University of Virginia Patent Foundation, priority 2012, dated 2016).

B1: soluble VCAM-1: soluble VCAM-1, component of SLP (protein, UniProt P19320 25-698, looked up)
extracellular domain: FKIETTPESRYLAQIGDSVSLTCSTTGCESPFFSWRTQIDSPLNGKVTNEGTTSTLTMNPVSFGNEHSYLCTATCESRKLEKGIQVEIYSFPKDPEIHLSGPLEAGKPITVKCSVADVYPFDRLEIDLLKGDHLMKSQEFLEDADRKSLETKSLEVTFTPVIEDIGKVLVCRAKLHIDEMDSVPTVRQAVKELQVYISPKNTVISVNPSTKLQEGGSVTMTCSSEGLPAPEIFWSKKLDNGNLQHLSGNATLTLIAMRMEDSGIYVCEGVNLIGKNRKEVELIVQEKPFTVEISPGPRIAAQIGDSVMLTCSVMGCESPSFSWRTQIDSPLSGKVRSEGTNSTLTLSPVSFENEHSYLCTVTCGHKKLEKGIQVELYSFPRDPEIEMSGGLVNGSSVTVSCKVPSVYPLDRLEIELLKGETILENIEFLEDTDMKSLENKSLEMTFIPTIEDTGKALVCQAKLHIDDMEFEPKQRQSTQTLYVNVAPRDTTVLVSPSSILEEGSSVNMTCLSQGFPAPKILWSRQLPNGELQPLSENATLTLISTKMEDSGVYLCEGINQAGRSRKEVELIIQVTPKDIKLTAFPSESVKEGDTVIISCTCGNVPETWIILKKKAETGDTVLKSIDGAYTIRKAQLKDAGVYECESKNKVGSQLRSLTLDVQGRENNKDYFSPE
modifications: extracellular domain
notes: soluble VCAM-1, component of SLP
B2: soluble ICAM-1: soluble ICAM-1, component of SLP (protein, UniProt P05362 28-480, looked up)
extracellular domain: QTSVSPSKVILPRGGSVLVTCSTSCDQPKLLGIETPLPKKELLLPGNNRKVYELSNVQEDSQPMCYSNCPDGQSTAKTFLTVYWTPERVELAPLPSWQPVGKNLTLRCQVEGGAPRANLTVVLLRGEKELKREPAVGEPAEVTTTVLVRRDHHGANFSCRTELDLRPQGLELFENTSAPYQLQTFVLPATPPQLVSPRVLEVDTQGTVVCSLDGLFPVSEAQVHLALGDQRLNPTVTYGNDSFSAKASVSVTAEDEGTQRLTCAVILGNQSQETLQTVTIYSFPAPNVILTKPEVSEGTEVTVKCEAHPRAKVTLNGVPAQPLGPRAQLLLKATPEDNGRSFSCSATLEVAGQLIHKNQTRELRVLYGPRLDERDCPGNWTWPENSQQTPMCQAWGNPLPELKCLKDGTFPLPIGESVTVTRDLEGTYLCRARSTQGEVTRKVTVNVLSPRYE
modifications: extracellular domain
notes: soluble ICAM-1, component of SLP

Tests used:
[1] = test system: murine BMNCs and CFU-GM progenitor cells; assay: Migration of murine BMNCs and CFU-GM progenitors to SDF-1 gradient after cationic peptide priming; format: cell-based
Protocol: FIG. 8A-B—A) BM mononuclear cell and B) CFU-GM migration in response to an SDF-1 gradient after priming with LL-37 or hBD-2. Values are fold increases of migrated cells compared to media alone.
FIG. 17A-B—Cationic peptides released from granulocytes enhance responsiveness of HSPCs to SDF-1 gradient. […] Values are the fold increases of migrated cells compared to media alone. M, media alone; SDF-1 (L), 50 ng/ml; SDF-1 (H), 300 ng/ml; C3a, 1 μg/ml. * P<0.05 as compared with SDF-1 (50 ng/ml) alone. The data shown represent the combine results from four independent experiments carried out in triplicate per group (n=12).
We also evaluated the effect of complement fragment 5a (C5a). […] After leaving the BM, granulocytes undergo degranulation in response to plasma C5a and secrete cationic peptides, such as cathelicidin (LL-37) and β-defensin-2 (hBD-2). […] It was hypothesized that this response may be affected by the distribution of membrane lipids by cationic peptides. […] Direct confocal analysis of CXCR4 and lipid raft colocalization in the presence or absence of cationic peptides confirmed these findings.

[2] = test system: UCB T-cells; assay: Cytoplasmic IFN-γ and NFAT1 expression in UCB T-cells during mitogen stimulation; format: cell-based, human; details: exogenous cytokine added during mitogen stimulation; IFN-γ 100 or 1,000 U/ml; 24 h
Protocol: To further test expression and regulation, exogenous IFN-γ was added (100 or 1,000 U/ml) during mitogen stimulation and cytoplasmic IFN-γ expression in UCB T-cells was measured.

[3] = test system: UCB CD34+ cells; assay: Transwell chemotaxis of UCB CD34+ cells to SDF-1 (priming); format: cell-based, human; details: for chemotactic response of UCB CD34+ cells to SDF-1: added to lower chambers with SDF-1 10 ng/mL, uPAR, ICAM, VCAM, C3a 1 μg/mL, FN 2 μg/mL, FG 4 μg/mL; for induction of chemotaxis of HSPCs when used alone: without SDF-1
Protocol: FIG. 11A-B—Effect of SLP and its components on chemotaxis of CD34^+ cells. Panel A: Chemotaxis of BM CD34^+ cells towards medium alone (control), SDF-1 low (10 ng/mL) alone, SLP (combined SLP from three patients), SDF-1 low+SLP, and SDF-1 high (300 ng/mL). Data are pooled from quadruplicate samples from three independent experiments. *p<0.00001. Panel B: Chemotaxis of UCB CD34^+ cells to medium alone (control), SDF-1 low (10 ng/mL) alone and SDF-1 low (10 ng/mL)+uPAR (1 μg/mL) or +ICAM (1 μg/mL) or +VCAM (1 μg/mL) or +FN (2 μg/mL), or +FG (4 μg/mL) or +C3a (1 μg/mL). Data are pooled from quadruplicate samples from three independent experiments. * p<0.00001.
An increased migration of UCB-derived CD34^+ cells, as compared to BM and mPB CD34^+ cells was reported in transwell migration assays was previously reported. However, we noticed large inter-individual differences in the in vitro migratory ability of UCB CD34^+ cells, ranging from 1.1% to 14.3% for spontaneous migration and 3.1% to 62.3% for SDF-1-induced (300 ng/mL) migration. The lower migratory capacity in vitro of UCB-derived CD34^+ cells was not due to lower expression of CXCR4, but likely reflects the decreased migratory behavior of these cells. […] Based on this, we postulate that UCB HSPC responsiveness to an SDF-1 gradient varies with each collected UCB unit and that, in cases when responsiveness is low, UCB HSPCs should be identified and primed before infusion.
Moreover, as SLP contains several components that potentially could prime the responses of CD34^+ cells, (Example 2, FIG. 11, panel B) the most important being PMV and activated complement proteins such as anaphylatoxin C3a, soluble VCAM-1, soluble ICAM-1, uPAR, FG, and FN, we evaluated whether these factors could induce the chemotaxis of HSPCs when used alone. […] We also examined whether FG, FN, soluble VCAM-1, soluble ICAM-1, uPAR, and C3a prime HSPCs in their responses to SDF-1. […] To determine whether this also affects UCB CD34^+ clonogenic progenitors, UCB CD34^+ cells were collected from the lower chambers after the chemotaxis assay and plated in methylcellulose cultures. […] Moreover, a similar effect for the established hematopoietic cell lines Molt 4, Nalm-6, and THP-1 was also found (data not shown).

| Molecule | responsiveness of hematopoietic progenitors to plasma SDF-1 (priming effect) [1] | percentages of IFN-γ-expressing UCB T-cells [2] | chemotactic response of UCB CD34+ cells to SDF-1 [3] | induction of chemotaxis of HSPCs when used alone [3] |
| --- | --- | --- | --- | --- |
| MIP-3alpha: agonist of a membrane receptor that may bind the cationic peptides [reference compound] | did not show similar priming effects |  |  |  |
| TNF-α |  | did not result in up-regulation |  |  |
| B1 |  |  | increased the chemotactic response | no evidence that they did |
| B2 |  |  | increased the chemotactic response | no evidence that they did |
